Source: patent publication US20170283834A1, “Processes for Producing A Fermentation Product Using A Fermenting Organism” (Novozymes A/S, priority 2014, published 2017)

Columns and labels:
[1] = Penicillium oxalicum glucoamylase: pH optimum; assay type: biochemical; settings: for Relative activity (%): pH optimum
Experimental: (§1) Substrate: 1% soluble starch (Sigma S-9765) in deionized water
(§2) 20 microL soluble starch and 50 microL acetate buffer at pH 5.3 were mixed. 30 microL enzyme solution (50 micro g enzyme protein/ml) was added to a final volume of 100 microL followed by incubation at 37° C. for 15 min.
(§3) The glucose concentration was determined by Wako kits.
pH optimum. To assess the pH optimum of the Penicillium oxalicum glucoamylase the Reaction condition assay described above was performed at pH 2.0, 3.0, 3.5, 4.0, 4.5, 5.0, 6.0 7.0, 8.0, 9.0, 10.0 and 11.0. Instead of using the acetate buffer described in the Reaction condition assay the following buffer was used 100 mM Succinic acid, HEPES, CHES, CAPSO, 1 mM CaCl2, 150 mM KCl, 0.01% Triton X-100, pH adjusted to 2.0, 3.0, 3.5, 4.0, 4.5, 5.0, 6.0 7.0, 8.0, 9.0, 10.0 or 11.0 with HCl or NaOH.

[2] = Penicillium oxalicum glucoamylase: heat stability; assay type: biochemical; settings: for Relative activity (%): Heat stability
Experimental: as §1
Reaction buffer: 0.1 M Acetate buffer at pH 5.3 Glucose concentration determination kit: Wako glucose assay kit (LabAssay glucose, WAKO, Cat#298-65701).
as §2, §3
To assess the heat stability of the Penicillium oxalicum glucoamylase the Reaction condition assay was modifed in that the enzyme solution and acetate buffer was preincubated for 15 min at 20, 30, 40, 50, 60, 70, 75, 80, 85, 90 and 95° C. Following the incubation 20 microL of starch was added to the solution and the assay was performed as described above.

B1: Penicillium oxalicum glucoamylase: wild type Penicillium oxalicum glucoamylase disclosed in SEQ ID NO: 9 (protein, listed as Penicillium oxalicum)
chain: MRLTLLSGVAGVLCAGQLTAARPDPKGGNLTPFIHKEGERSLQGILDNLGGRGKKTPGTAAGLFIASPNTENPNYYYTWTRDSALTAKCLIDLFEDSRAKFPIDRKYLETGIRDYVSSQAILQSVSNPSGTLKDGSGLGEPKFEIDLNPFSGAWGRPQRDGPALRATAMITYANYLISHGQKSDVSQVMWPIIANDLAYVGQYWNNTGFDLWEEVDGSSFFTIAVQHRALVEGSQLAKKLGKSCDACDSQPPQILCFLQSFWNGKYITSNINTQASRSGIDLDSVLGSIHTFDPEAACDDATFQPCSARALANHKVYVDSFRSIYKINAGLAEGSAANVGRYPEDVYQGGNPWYLATLGASELLYDALYQWDRLGKLEVSETSLSFFKDFDATVKIGSYSRNSKTYKKLTQSIKSYADGFIQLVQQYTPSNGSLAEQYDRNTAAPLSANDLTWSFASFLTATQRRDAVVPPSWGAKSANKVPTTCSASPVVGTYKAPTATFSSKTKCVPAKDIVPITFYLIENTYYGENVFMSGNITALGNWDAKKGFPLTANLYTQDQNLWFASVEFIPAGTPFEYKYYKVEPNGDITWEKGPNRVFVAPTGCPVQPHSNDVWQF
pH of highest activity ([1]; at the given conditions): 5.0
activity maintained from pH 2 to 7 ([1]; pH 2 to 7): more than 50%
Relative activity (%) ([1]; pH 2.0): 71.4%
Relative activity (%) ([1]; pH 3.0): 78.6%
Relative activity (%) ([1]; pH 3.5): 77.0%
Relative activity (%) ([1]; pH 4.0): 91.2%
Relative activity (%) ([1]; pH 4.5): 84.2%
Relative activity (%) ([1]; pH 5.0): 100.0%
Relative activity (%) ([1]; pH 6.0): 55.5%
Relative activity (%) ([1]; pH 7.0): 66.7%
Relative activity (%) ([1]; pH 8.0): 30.9%
Relative activity (%) ([1]; pH 9.0): 17.8%
Relative activity (%) ([1]; pH 10.0): 15.9%
Relative activity (%) ([1]; pH 11.0): 16.1%
Relative activity (%) ([2]; preincubated 15 min at 20° C.): 91.0%
Relative activity (%) ([2]; preincubated 15 min at 30° C.): 92.9%
Relative activity (%) ([2]; preincubated 15 min at 40° C.): 88.1%
Relative activity (%) ([2]; preincubated 15 min at 50° C.): 100.0%
Relative activity (%) ([2]; preincubated 15 min at 60° C.): 96.9%
Relative activity (%) ([2]; preincubated 15 min at 70° C.): 86.0%
Relative activity (%) ([2]; preincubated 15 min at 80° C.): 34.8%
Relative activity (%) ([2]; preincubated 15 min at 85° C.): 36.0%
Relative activity (%) ([2]; preincubated 15 min at 90° C.): 34.2%
Relative activity (%) ([2]; preincubated 15 min at 95° C.): 34.8%
activity maintained after preincubation ([2]; up to 70° C., preincubation for 15 min): more than 80%
